Test results published in patent US20260242478A1 (published 2026).
Where no end group is shown, it is not given here.

Columns and labels:
PSMA Fab (006 PSMA Fab) [1] = biological target: T1, PSMA Fab (006 PSMA Fab); experiment: clonal phage ELISA; biotinylated PSMA Fab on neutravidin plate, wells pre-incubated with PSMA antigen as competitor; anti-M13 HRP detection;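 also: crude clonal phage supernatants added to antigen-treated wells without a wash, incubated briefly, then bound phage read out via horse radish–conjugated anti-M13 antibody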
T1 construct: also called Anti-PSMA Fab; anti-PSMA Fab
Experimental: (§1) Clonal phage were harvested as crude supernatants and screened via standard ELISAs. […] Prior to the addition of clonal phage. wells were incubated with blocking buffer and PSMA antigen or blocking buffer alone. Without washing or aspirating, clonal phage supernatants were then added to the wells and incubated for a short time. Wells were then washed followed by detection of bound phage using a horse radish conjugated anti-M13 antibody.

PSMA Fab (006 PSMA Fab) [2] = biological target: T1, PSMA Fab (006 PSMA Fab); experiment: clonal phage ELISA; biotinylated PSMA Fab on neutravidin plate, blocking buffer alone; anti-M13 HRP detection;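 also: crude clonal phage supernatants added without washing to wells pretreated with blocking buffer with or without PSMA antigen, short incubation, then washed before detecting bound phage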
Experimental: as §1

PSMA Fab [3] = biological target: T2, PSMA Fab (biotinylated (site not stated)); experiment: phage ELISA; biotinylated PSMA Fab on neutravidin plate, clonal phage supernatant, anti-M13-HRP detection;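 also: wells were preincubated with blocking buffer containing PSMA antigen or with blocking buffer only, then phage supernatant was added without washing for a brief incubation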
T2 construct: Biotinylated PSMA Fab captured on neutravidin plates in the phage ELISA; also called Anti-PSMA Fab; 006 PSMA Fab

PSMA Fab [4] = biological target: T2, PSMA Fab; experiment: phage ELISA; PSMA Fab-coated wells pre-incubated with PSMA antigen as competitor, anti-M13-HRP detection
Experimental: as §1

Row | Binder | Phage binding ELISA signal, Anti-PSMA Fab in presence of PSMA antigen (PSMA Fab (006 PSMA Fab) [1]) | Phage binding ELISA signal, Anti-PSMA Fab (PSMA Fab (006 PSMA Fab) [2]) | Phage binding ELISA signal, Anti-PSMA Fab (PSMA Fab [3]) | Phage binding ELISA signal, Anti-PSMA Fab with PSMA antigen (PSMA Fab [4])
1 | IVRWCTPEWMCVGF (Row prints - V R W - T - E - - - V - -) [Phage-2523] | 0.0674 | 1.18 | – | –
2 | AVKWCTPAWMCSGF (Row prints A V K W - T - A - - - S - -) [Phage-2524] | 0.0682 | 1.18 | – | –
3 | VITWCTPPWMCSGW (Row prints V I T W - T - P - - - S - W) [Phage-2525] | 0.0911 | 1.17 | – | –
4 | WEKWCTPSWMCSAG (Row prints W E K W - T - S - - - S A G) [Phage-2526] | 0.0743 | 1.17 | – | –
5 | SEHWCIPQWMCQSV (cysteine pairing not given here; also: fused to phage pIII, linker and fusion site not given here) [Phage-2543] | – | – | 1.15 | 0.114
6 | PLKWCIPQWMCTEA [Phage-2544] | – | – | 1.15 | 0.0825
7 | LYNWCTPAWMCYGY [Phage-2545] | – | – | 1.15 | 0.284
8 | ESHWCIPAWMCEQF [Phage-2546] | – | – | 1.14 | 0.0589
9 | EGKWCIPDWMCAAH (cysteine pairing not given here; also: fused to phage pIII, linker and fusion site not given here) [Phage-2547] | – | – | 1.14 | 0.0598
10 | FENWCTPKWMCIGV [Phage-2548] | – | – | 1.14 | 0.102
11 | VQKWCIPPWMCTHI [Phage-2549] | – | – | 1.14 | 0.0958
12 | FHEWCIPSWMCFKE [Phage-2550] | – | – | 1.14 | 0.0984
13 | EPKWCTPPWMCQSV [Phage-2551] | – | – | 1.14 | 0.0734
14 | AEYWCIPRWMCSQH [Phage-2552] | – | – | 1.14 | 0.0882
15 | GEKACIPAWMCSEN [Phage-2553] | – | – | 1.13 | 0.0736
16 | MFKWCTPQWMCETM [Phage-2554] | – | – | 1.13 | 0.124
17 | TQKLCIPEWMCEAM [Phage-2555] | – | – | 1.12 | 0.0698
18 | LQTWCIPPWMCEGG [Phage-2556] | – | – | 1.12 | 0.0675
19 | VLKWCTPAWMCTGF [Phage-2557] | – | – | 1.12 | 0.0805
